# Measurements taken from patent US20170015742A1 (published 2017).
# T1: mouse VEGF (PR-1578904) (mouse, UniProt Q00731 205-392)
# T1 construct: also called mVEGF164
# T1 chain: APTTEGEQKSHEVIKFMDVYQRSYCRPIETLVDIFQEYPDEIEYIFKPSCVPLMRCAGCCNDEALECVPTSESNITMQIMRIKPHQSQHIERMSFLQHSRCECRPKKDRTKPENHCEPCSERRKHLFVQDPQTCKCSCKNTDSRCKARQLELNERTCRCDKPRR
# Biological target: T1, mouse VEGF (PR-1578904)
# Assay: SPR (Biacore), mAb captured by anti-human Fc, antigen injected
# Method: Unreacted moieties on the biosensor surface were blocked with ethanolamine. For kinetic analysis, rate equations derived from the 1:1 Langmuir binding model were fitted simultaneously to multiple antigen injections (using global fit analysis) with the use of Scrubber 2 (BioLogic Software), Biacore Biaevaluation 4.0.1 software or Biacore T100 Evaluation software. Purified antibodies or DVD-Ig molecules were diluted in running buffer for capture across goat anti-human Fc reaction surfaces. Antibodies or DVD-Ig molecules to be captured as a ligand (1 μg/ml) were injected over reaction matrices at a flow rate of 10 μl/minute. During the assay, all measurements were referenced against the capture surface alone (i.e., with no captured antibody or DVD-Ig molecule). […] The equilibrium dissociation constant KD (M) of the reaction between antibodies and the target antigen was then calculated from the kinetic rate constants by the following formula: KD=Koff/Kₒₙ. Binding was recorded as a function of time and kinetic rate constants were calculated. In this assay, on-rates as fast as 10⁶M⁻¹s⁻¹ and off-rates as slow as 10⁻⁶ s⁻¹ could be measured.
binder,measurement,value
"AB014 (Avastin), PR-1545939 (antibody, V domains shown, Anti-VEGF-A mAb) VH: EVQLVESGGGLVQPGGSLRLSCAASGYTFTNYGMNWVRQAPGKGLEWVGWINTYTGEPTYAADFKRRFTFSLDTSKSTAYLQMNSLRAEDTAVYYCAKYPHYYGSSHWYFDVWGQGTLVTVSS VL: DIQMTQSPSSLSASVGDRVTITCSASQDISNYLNWYQQKPGKAPKVLIYFTSSLHSGVPSRFSGSGSGTDFTLTISSLQPEDFATYYCQQYSTVPWTFGQGTKVEIK",binding result,no binding
